This experiment concerns the target myelin basic protein peptide on HLA-DRB1*15:01 (human). The experiment in a line: estimate stated in the description; not measured in this filing.

On to Ob.1A12, for which the Kd was more than 100 µM.

The values above are taken from US12649772B2.
